# Measured values taken from US20240173425A1, “HUMAN CD33 ANTIBODIES AND GLUCOCORTICOID CONJUGATES” (Eli Lilly and Company, priority 2022, published 2024).
# Biological target: human CD33 on the cell surface of human monocytes / myeloid cells (human) (UniProt P20138)
# Experiment: cell-based or functional assay
# human CD33 on the cell surface of human monocytes / myeloid cells (human), sequence (P20138 18-364 limits assumed): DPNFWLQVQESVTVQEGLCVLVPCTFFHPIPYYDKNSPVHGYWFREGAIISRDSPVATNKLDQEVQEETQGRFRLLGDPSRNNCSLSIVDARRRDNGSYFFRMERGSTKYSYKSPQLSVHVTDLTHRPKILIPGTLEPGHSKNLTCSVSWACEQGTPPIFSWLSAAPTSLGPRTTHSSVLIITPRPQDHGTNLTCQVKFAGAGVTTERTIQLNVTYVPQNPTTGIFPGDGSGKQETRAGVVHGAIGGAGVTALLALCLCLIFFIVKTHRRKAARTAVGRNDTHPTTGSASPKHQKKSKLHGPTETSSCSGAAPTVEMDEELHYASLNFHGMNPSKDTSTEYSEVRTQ
substance,measurement,value
Gemtuzumab (hIgG4PAA) (antibody),% Internalization,50.5%
